Assay results from the DeepSol protein solubility set.

Assay: soluble on expression in E. coli; label from the status in PepcDB or PDB records

| Sequence | soluble on expression in E. coli |
| --- | --- |
| MGSDKIHHHHHHAQRINHVQEAIANYDYEAALTLIAKEKPTIPLLLQKGKAQRGLGMNTEALSTYQEIIANDTANTRAYIEAAECCRSLAKYQQALKYYEQALDLNPENKYVRIQYIGLLLSLQKFQDALGESSLMTEKDSSAIALHLQAQSFEGMGELLPATGCYYNIQEKYPDDYLAAAKLAALNIAGSYFNEAIEATEKYRQTDTTNIAVNRQNALAYCLNKDYPTAIQRYEYLVSQGDSSFHTCYYLGISYYAEEKYYEAHDFLEAARKHDPENVNLLYYLGRACAKTSWKKLGVEYLEKALDLTIPKDSNMVRLYIGMTDCYKMAQMPKEQIESIRERYRKYDKQNHKLLYDMAFIYFYSLKDKKNTERCLEAFLKTRPKEDKEEEAKLNERGELVLGTKNYYNAAANWLKDIQSKQKIEDFFLGGNVPAQKPE | not soluble |
| MGNRLMTSGAQGTNAAVIRGAMRADPNLLTVILPQSLDRQPRESREQLEKVIHLVEHAENDHLSLAEASTLCNQAIVTRCQQLICFAFHDSHTLLETCRYAEDQHHLVTLFYFDLEHHHHHH | soluble |
| MPKPYIAINMADLKNEPKTFEMFSAVGPKVCMVTARHPGFVGFQNHVQIGVLPFGERFGGAKMDMTKESSTVRVLQYTMWKDWKDHEEMHRQNWSYLFRLCYSCASQMVWGPWEPIYEIKYADMPINTEMTDFTAVVGKKFAEGKPLEIPVISQPYGKRVVAFGEHTVIPGKEEQFEDAIIKTLEMFKRAPGFLGAMLLKEIGVSGIGSFQFGSKGFHQLLESPGSLEPDPNNVMYQAPEAKPTPPQYIVHVEWANLDALQFGMGRVLLSPEYREVHDEALDTLIYGPYIRIINPVMEGTFWREYLNE | soluble |
| MSDEKKSTDIDLKNLKAGGFIKERGKDLFTVRLRVPGGRMPVARLKKIAEVAEKYGQGMVHLSVRQSVELININFRDFDAVVAELGEGTQKVASCGARVRVPTACGGCEYNPNGLVDTQKSALEVDEKLFGTSTGHHKFKVGFAGCPFDCPKSATNDVGFQGAIWPVLYADECIGCGLCDKSCTEDAIVMGDDGKPRFIPENCLYCGDCLKVCPSEAWRAEKKGYTVRIGGKWGRRPLVGTLFAEFLPEEQVFDFIAAVLDWYKEKAEGQGRIRLGDVIRAEGPDALLGYLRERFPAAVVDATIPPQRIATQIGKEKRVPLEHHHHHH | soluble |
| MGSDKIHHHHHHMNFNSDLLNLNSKSPAFSITIEGKDVTTVMDARLMSLTLTDNRGFEADQLDLELDDADGQIVLPRRGAVIHLALGWKGQPLFPKGAFTVDEIEHSGAPDRLTIRARSADFRETLNTRREKSWHQTTVGEVVKEIAARHNLKVALGQDLTDKALDHMDQTNESDASFLMKLARQYGAIASVKDGNLLFIRQGQGRTASGKPLPVITITRKAGDGHRFTLADRGAYTGVIASWLHTREPRKKETTSVKRRRKKATTPKEPEAKQGDYLVGTDENVLVLNRTYANRSNAERAAKMQWERLQRGVASFSLQLAEGRADLYTEMPVKVTGFKQPIDDAEWTITTLTHSVSPDNGFTTSMELEVKIDDLEIE | not soluble |
| MKSAEQWIDELQLESHPEGGFYRETIREVLKDGRRAPFSSIYFLLTDDNISHFHRIDADEVWYYHAGDSLTIHMINPDGEYTTATLGTDIQNGDVLQYVVPKGTIFASSIEFSNTYSLVGCMCQPAFEFKQFELFKQSELITQYPHLKSVIEKYALK | soluble |
| MGSDKIHHHHHHMKIEINPVSRIEGHAKVTIFLDSSGKVENAFFQATEFRGYEKILSGLPMEEVPRVVSTICGICRAIHFTAALKAADQVFGVEASDAAKIVREMLLCAHFIEDHTLSLLALALPDFLSPEERNIFGVIRNLGELGRELLRKRGYAVRILQILGGRNIHPVTALPGGWAKAPTDEELGLIERYSRELLDLGYRMVEVLEAALDMGDGLELRAATLGTEKKGLVNLYDGEQVVKDEEGKEVLRFSGKEYADIITEKSLSWSYSKLTEIKPLGEKLYVVGPLARLKTAELTPKASEIVKTYGVSNNLLYNHFARAVEIIYAAERLLELSQSYRGGRIQNEPQKVAGEGVGIVEAPRGTLIHHYWTDEKGIVRGSNLIVATTHNVRAINHVVGKVAERASDTRNLAEKVEVAIRAFDPCMACATHAVNGVIPIEIQIFRDGELEEVYRNYEESCCGSGQSTHS | not soluble |
| MTKTLETQPEEKTVFLCKETNPDFLGREIYADNVETPYNFYLIRKLYLAKEYQNLAEGEQFFEALCESWDESEQFEELIVKKIYVYVETELMYYTVYFGSFEPTTRDLRSALKQWMYEIPTTKNKKTVRMNETNVQVVPQENQLTELAGEIAVLREMLTLLKENLASLNEAVNQTRNPVISRQIKTIHLKRASPVIAAEQASLKVSEDTNLEQPDVNLSPDNRENQEGETTVATSEPAPIKEALPEKKQENQQSTAAKPLFTFPQETEKSSLNSVNKSAEKEEEQKPEKEAVSMESEKENSSSRTIPADFQRQLDELEEEIYRRFMSRHLEDTDGNQAVPKITIEKRQLEAQMFEAKAFSQSFKQVQKKKAGDVRICNQLSCMKLEKGLDKFLDEVTEYVEKRTLFNKKVRCPLPVIRELEGYGQLNQYMQKILDCY | not soluble |
| MGSDKIHHHHHHDLLHESYGQVVSEDYVPKTEEDVSYLVNAAYIPWRETLLQWNGVVRAQELCADQDVLPARDGIGWVDGYIYKRWHQHTWTTEDDGVLQGWERTYNGVNTCNRILSQIEEGVISVDGETKEKLIAELKVLRASYYYILIDLYGNVPIVTDFKDTSLPQQSTRKEVFDFIVKEITENMDLLSETPRGYYYGRFNKWAAHTLLAKMYLNAEVWSGTAQWQKCIDECDIVINYAEKSGEYALENNQKDVFVTHNENSKEIIFALPFDEIYVTGWNDFDFHMYTLAPENQDTYQLTARPWGGVCAVPQFINSFDEDDARLEDNYIQGQQYTYSGEILKRSIDGKPLIYTVDVPSIDQSDVDDGFRWGKFEYATGITNRLSNDWPLLRYADVLMMKAESLMRLGKSGAGALVTQVRERAFKNEPEKAQVTDAELMGGSVYDYGRRDSYKTEHDGGTDIKYGRFLDELGWEFCQEGRRRQDMIRFGIFTTKAWFSHDKSDETKNLYPIPNKVLLTNSNLKQNPGYSK | not soluble |
| AKDWFVAVFANMAHNENKITKISDSLKEYNKRVQEKYAKYDSGKGDSKYSETYLQYVEGGSLTSIFGVRSLGINPADGKEIYLRPDGTITYDWNAADQVVIGNEEPKLQGTFGFNLRWKQFSLYSTFMYEFGGQRYNSTLVSKVENAHIQSSNVDRRVLTGRWQKPGDCTPYGRLQTDGVVAVTRPTSRFIQDYNVLTFNSLTLGYDFNAEWLKKARIGLLRVELSGNDLFRVATVRAERGLDYPYSRSFAASVKMSF | not soluble |
| FFTPPHIVQLCVRLVDDFADGMTFHDPTVGSGGMLTEAAKYYREAQGGDPSKLTFTGQEINPDIAAIARMNLSLHTLNGEIERGDSLASPGFTDGDDLERFDRVLANFPFSADWAKDDLQDDQYGRFDWHTKLPRADRGDYAFIMHIAEQLKEPDCGDESGGKAAIVIPHGVLFRKHEQRYRQPMLENDLVEAIVGLPENLFQNNSIPSAILVLNTDKPADREGEVQFIHAADEAFYEELSNQNELTDDGLDHIVENFDDWTTE | not soluble |
| MGHHHHHHSHMEGSETGSREGSDVACTEGICNHDEHGDDSCVHHCEDKEDDGDSCVECWANSEENDTKGKNKKKKKKSKILKCDEHIQKLGSCITDPGNRETSGNTMHTVFHRDKTKDTHPESCCSSEKGGQPLPWFEHRKNVPQFAEPTETLFGPDSGKGAKSLVELLDESECTSDEEIFISQDEIQSFMANNQSFYSNREQYRQHLKEKFNKYCRLNDHKRPICSGWLTTAGAN | not soluble |
| GMENELEDKILAILEQHQVGVLTSVQGDFPHARYMTFLHDGLTLYTPSGKELPKTEEVRRNPHVCVLIGYDSPGSAFLEINGLASLEEDESIKERIWENISKDWFQGEDSPSFVVIKIVPEQIRILNS | soluble |
| MTDSTTLYPVFAEELLPGGGHRSFILKRGELLRLTDLNGNANVSLTLLNAHEKTERLNLPDSLKCQHTAKLSNGHCLYSDMGRVLAAIVTDTCGWSDSIGGVLNAQEVAEKYGQGRYQELRNGFFRNGVDNLLVELGKWGLGLSDLLMTLNLFSRVDVSETGTLHFAPNNSKAGDYIELYAPMDTLVVLTALQHPMDPNPDYVPQPLTLSWMKADASVAEHCRTSRPENERGFINTDRLFALEHHHHHH | soluble |
| MRLTEGIVVDSVLTFGKLRFSALRREVRKQNEDGTVSNEVKERTYNLKSSAQGRMIQVSIPANVPLREFAYDAEVELVNPIVDTVANYVFREGTTVNWFIKADDLVLKRQPNQGNSTNQIEGKK | not soluble |
